Blank lines part the entries; values can stand above or below the binder they belong to.
Assays:
Human CXCR7 [1] = biological target: T1, Human CXCR7 (human, UniProt P25106 1-362); assay: phage ELISA on immobilized hCXCR7 VLPs, OD 450 nm
T1 construct: see assay field; also called hCXCR7
Description: (§1) From all round 2 selection outputs clones were screened in phage ELISA on 2 units of immobilized CXCR7VLPs applying 10-fold dilutions of phage supernatant. […] The reaction was stopped with H₂SO₄ and the absorbance was measured at 450 nm using Sunrise TECAN spectrophotometer (TECAN). Nanobodies, showing a minimally 2-fold increased ELISA signal on hCXCR7VLPs over non-transfected control VLPs, were considered to be CXCR7 specific. CXCR7 specific Nanobodies were sequenced and redundant Nanobodies (identical AA sequence) were removed.

Human CXCR7 [2] = biological target: T1, Human CXCR7; assay: phage ELISA, hCXCR7 VLPs over non-transfected control VLPs
Description: as §1

Human CXCR7 [3] = biological target: T1, Human CXCR7; assay: FACS, Hek293 hCXCR7 over Hek293 wt cells
Description: (§2) Clones representing distinct Nanobody B-cell lineages were tested as periplasmic extracts for their binding to cell surface exposed CXCR7. In this assay, 5-fold dilutions of periplasmic extract were incubated with Hek293 hCXCR7 and Hek293 wt cells. Binding of the Nanobodies was detected using mouse anti-myc (Serotec), followed by anti-mouse IgG-PE (Jackson Immununoresearch).

Human CXCR7 [4] = biological target: T1, Human CXCR7; assay: FACS, periplasmic extract on Hek293 hCXCR7 cells
Description: as §2

Mouse CXCR7 [5] = biological target: T2, Mouse CXCR7 (mouse, UniProt P56485 1-362); assay: FACS on HEK293 cells transfected with pcDNA3.1-mCXCR7, 800 nM Nanobody
T2 construct: On transfected HEK293 cells; also called mCXCR7
Excerpt: (§3) HEK293 cells transfected respectively with pcDNA3.1-hCXCR7 and pcDNA3.1-mCXCR7 were used to test cross-reactive binding of Nanobodies to mouse CXCR7 in FACS analysis. […] Nanobody binding was detected using mouse anti-myc (Serotec) and anti-mouse IgG-PE (Jackson Immunoresearch) and Mab binding by goat anti-mouse IgG-PE (Jackson Immunoresearch).

Cynomolgus CXCR7 = biological target: T3, Cynomolgus CXCR7 (cynomolgus, UniProt P25106 1-362 (human entry)); assay: FACS on HEK293 cells expressing cynomolgus CXCR7, 800 nM Nanobody
T3 construct: On transfected HEK293 cells; also called cCXCR7; cyno CXCR7
T3 chain: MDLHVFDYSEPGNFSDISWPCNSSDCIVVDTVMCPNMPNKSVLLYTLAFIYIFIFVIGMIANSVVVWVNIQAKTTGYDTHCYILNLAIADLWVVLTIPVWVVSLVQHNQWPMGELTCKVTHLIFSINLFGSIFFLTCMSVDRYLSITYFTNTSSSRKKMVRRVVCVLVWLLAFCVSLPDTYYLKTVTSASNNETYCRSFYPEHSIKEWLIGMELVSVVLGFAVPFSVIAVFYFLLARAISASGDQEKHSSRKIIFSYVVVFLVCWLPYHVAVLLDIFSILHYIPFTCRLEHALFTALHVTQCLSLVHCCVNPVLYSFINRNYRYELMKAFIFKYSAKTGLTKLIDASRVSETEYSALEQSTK
Description: as §3
Cross-reactive binding to cynomolgus CXCR7 was assessed in the same way.

Human CXCR7 [6] = biological target: T1, Human CXCR7; assay: [125I]-CXCL12 displacement on NIH3T3-hCXCR7 cells, relative to cold SDF-1
Description: (§4) After incubation, cells were washed twice, lysed with RIPA buffer and the ¹²⁵I signal was measured.

Human CXCR7 [7] = biological target: T1, Human CXCR7; assay: competition FACS with 4 nM biotinylated SDF-1 on HEK-hCXCR7 cells
Human CXCR7 [8] = biological target: T1, Human CXCR7; assay: FACS binding, purified protein on stable HEK-CXCR7 cells
Human CXCR7 [9] = biological target: T1, Human CXCR7; assay: [125I]-CXCL12 displacement on NIH3T3-hCXCR7 cells
Description: as §4

Mouse CXCR7 [10] = biological target: T2, Mouse CXCR7; assay: FACS on HEK293 cells transfected with pcDNA3.1-mCXCR7
Excerpt: as §3

T1 sequence (P25106 whole entry): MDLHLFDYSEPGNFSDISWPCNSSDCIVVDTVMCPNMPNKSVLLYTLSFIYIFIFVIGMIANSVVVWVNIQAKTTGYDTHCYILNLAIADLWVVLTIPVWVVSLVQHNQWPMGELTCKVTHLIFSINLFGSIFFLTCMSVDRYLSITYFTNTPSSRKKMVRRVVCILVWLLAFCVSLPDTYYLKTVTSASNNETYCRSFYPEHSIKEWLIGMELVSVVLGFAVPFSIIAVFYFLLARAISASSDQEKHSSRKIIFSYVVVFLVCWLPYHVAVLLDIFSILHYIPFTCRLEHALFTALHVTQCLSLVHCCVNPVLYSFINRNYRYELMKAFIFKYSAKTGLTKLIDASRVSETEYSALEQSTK
T2 sequence (P56485 whole entry): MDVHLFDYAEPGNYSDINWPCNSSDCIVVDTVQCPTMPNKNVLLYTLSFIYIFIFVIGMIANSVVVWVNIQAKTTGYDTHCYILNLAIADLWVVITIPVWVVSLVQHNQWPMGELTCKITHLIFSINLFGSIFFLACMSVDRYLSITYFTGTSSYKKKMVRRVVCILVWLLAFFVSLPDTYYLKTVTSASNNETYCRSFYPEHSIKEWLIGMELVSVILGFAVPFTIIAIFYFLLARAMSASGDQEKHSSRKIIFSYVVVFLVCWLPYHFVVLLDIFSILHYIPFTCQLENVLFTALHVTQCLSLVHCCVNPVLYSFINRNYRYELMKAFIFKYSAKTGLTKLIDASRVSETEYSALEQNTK

CXCR7-LP 2U/well [OD] (Human CXCR7 [1]): 0.053 OD
Fold CXCR7-LP/Null-LP (Human CXCR7 [2]): 4.4 fold
Fold Hek CXCR7/CXCR4 (Human CXCR7 [3]): 73.2 fold
Hek-CXCR7 [MCF] (Human CXCR7 [4]): 23400 MCF
B1: Nanobody 07C03 with Tag-1 (VHH)
VHH: EVQLVESGGGLVQAGESLTLSCAASGRTLSAYIMGWFRQAPGKEREFVAGIWSGGYTHLADSAKGRFSISRDNAKNTVYLQMNGLKPEDTAVYYCAAGLRGRQYSNWGQGTQVTVSS
notes: periplasmic extract in the screening FACS

binding result (Mouse CXCR7 [5]): binds
binding result (Cynomolgus CXCR7): binds
Average SDF-1 displacement (%) (Human CXCR7 [6]): 78%
competition relative to unlabelled SDF-1 (%) (Human CXCR7 [7]): > 95%
Plateau [mcf] (Human CXCR7 [8]): 33100 mcf
Ki (Human CXCR7 [9]): 0.0122 µM
B2: Nanobody 07C03 with Tag-2 (VHH)
VHH: B1 VHH
notes: Purified from E. coli periplasm

CXCR7-LP 2U/well [OD] (Human CXCR7 [1]): 0.104 OD
Fold CXCR7-LP/Null-LP (Human CXCR7 [2]): 17.3 fold
Fold Hek CXCR7/CXCR4 (Human CXCR7 [3]): 85.1 fold
Hek-CXCR7 [MCF] (Human CXCR7 [4]): 27400 MCF
B3: Nanobody 08A10 with Tag-1 (VHH)
VHH: EVQLVESGGGLVQAGGSLRLSCAASGSIFSIAAMGWYRQATGKQRELVATITDGGTTTYADSVKGRVTISRDRSANTVYLAMNNLKPDDTAVYYCYAYLRYTSRVPGDNYWGQGTQVTVSS
notes: as for B1

binding result (Mouse CXCR7 [10]): no binding (tested: 800 nM)
binding result (Cynomolgus CXCR7): binds
Average SDF-1 displacement (%) (Human CXCR7 [6]): 75%
Plateau [mcf] (Human CXCR7 [8]): 34900 mcf
Ki (Human CXCR7 [9]): 0.0121 µM
B4: Nanobody 08A10 with Tag-2 (VHH)
VHH: B3 VHH
notes: as for B2

CXCR7-LP 2U/well [OD] (Human CXCR7 [1]): 0.019 OD
Fold CXCR7-LP/Null-LP (Human CXCR7 [2]): 2.4 fold
Fold Hek CXCR7/CXCR4 (Human CXCR7 [3]): 60.1 fold
Hek-CXCR7 [MCF] (Human CXCR7 [4]): 18600 MCF
B5: Nanobody 08A05 with Tag-1 (VHH)
VHH: EVQLVESGGGLVQAGDSLRLSCAASGLTFSNYDMGWFRQAPGKEREFVGASWWSGGAPYYSDSVKGRFTISRDNAKNTVYLQANSLRPEDTAVYYCAAKRLRSFASGGSYDYWGQGTQVTVSS
notes: as for B1

binding result (Mouse CXCR7 [5]): binds
binding result (Cynomolgus CXCR7): binds
Average SDF-1 displacement (%) (Human CXCR7 [6]): 77%
Plateau [mcf] (Human CXCR7 [8]): 28500 mcf
Ki (Human CXCR7 [9]): 0.0136 µM
B6: Nanobody 08A05 with Tag-2 (VHH)
VHH: B5 VHH
notes: as for B2

CXCR7-LP 2U/well [OD] (Human CXCR7 [1]): 0.041 OD
Fold CXCR7-LP/Null-LP (Human CXCR7 [2]): 4.1 fold
Fold Hek CXCR7/CXCR4 (Human CXCR7 [3]): 110 fold
Hek-CXCR7 [MCF] (Human CXCR7 [4]): 42900 MCF
B7: Nanobody 07B11 with Tag-1 (VHH)
VHH: EVQLVESGGNLVQAGGSLGLSCAASVSISSIHIMGWYRQAPGKQRDLVATITSGGSTAYADSVKGRFTVSKDNAKNTVYLQMDSLKPEDTSVYYCAAEVRNGVFGKWNHYWGQGTQVTVSS
notes: as for B1

binding result (Mouse CXCR7 [10]): no binding (tested: 800 nM)
binding result (Cynomolgus CXCR7): binds
Average SDF-1 displacement (%) (Human CXCR7 [6]): 75%
Plateau [mcf] (Human CXCR7 [8]): 24900 mcf
Ki (Human CXCR7 [9]): 0.0961 µM
B8: Nanobody 07B11 with Tag-2 (VHH)
VHH: B7 VHH
notes: as for B2

CXCR7-LP 2U/well [OD] (Human CXCR7 [1]): 0.145 OD
Fold CXCR7-LP/Null-LP (Human CXCR7 [2]): 4.2 fold
B9: Nanobody 01C10 with Tag-1 (VHH)
VHH: EVQLVESGGGLVQTGASLRLSCAASGRTFSNYAMGWFRQAPGKERERVAAITPRAFTTYYADSVKGRFTISRDNAKNTAYLQMVSLKPEDTAVYYCAAQLVGSGSNLGRQESYAYWGQGTQVTVSS

binding result (Mouse CXCR7 [5]): binds
binding result (Cynomolgus CXCR7): binds
Average SDF-1 displacement (%) (Human CXCR7 [6]): 31%
Ki (Human CXCR7 [9]): 0.0207 µM
B10: Nanobody 01C10 with Tag-2 (VHH)
VHH: B9 VHH
notes: as for B2

Average SDF-1 displacement (%) (Human CXCR7 [6]): 24%
Ki (Human CXCR7 [9]): 0.0044 µM
B11: Mab 11G8 (R&D Systems) (antibody, V domains shown)
VH: EVKLVESGGDLVQPGGSLKLSCATSGFTFSDYYMFWVRQTPEKRLEWVAYITNGGDRSYYSDTVTGRFIISRDNAKNTLYLQMSRLKSEDTAMYYCARQGNWAAWFVYWGQGTLVTVSA
VL: DVLMTQTPLSLPVSLGDQASISCRSSHYIVHSDGNTYLEWYLQKPGQSPKLLIYKVSNRFSGVPDRFSGSGSGTDFTLKISRVEAEDLGIYYCFQGSHVPLTFGAGTKLELKR

Source: patent US20140178390A1 (published 2014)
